Results published in US20250145716A1 (RAKUTEN MEDICAL, published 2025).
Substitutions are numbered along the chain they refer to. Numbers in names are those of the source.

B1: 2M1 (antibody, V domains shown)
VH: EVQLVESGGGLVKPGGSLRLSCAASGFTFSSYTMNWVRQAPGKGLEWVSSITSSTSYIYYADSVKGRFTISRDNAKNSLYLQMNSLRAEDTSVYYCVRDWSIAARGAWFDPWGQGTLVTVSS
VL: DIQMTQSPSSVSASVGDRVTITCRASQGIGSWLAWYQQKPGKAPKFLIYAASSLQGGVPSRFSGSGSGTDFTLTISSLQPEDFATYYCQQANSFPLTFGGGTKVEIK
B2: 1P9 with effector knockout mutations L234F/L235E/P331S (antibody, V domains shown)
VH: EVQLVESGGGLVQPGGSLRLSCAASGFTFSTYWMSWVRQAPGKGLEWVANIKQDGGERYYVDSVKGRFTISRDNAKSSLYLQMNSLRAEDTALYYCARLRLYSDYEDYWGQGTLVTVSS
VL: B1 VL with G30S, F46L, A50S, A51V, G56S, F83S, F94L, L96P
notes: Same variable regions as 1P9; also called 1P9-EKO; 1P9 (L234F/L235E/P331S)
B3: 1P9-EKO-IR700 conjugate (antibody, V domains shown)
VH: B2 VH
VL: B1 VL with G30S, F46L, A50S, A51V, G56S, F83S, F94L, L96P
modifications: IRDye 700DX (IR700) attached via NHS ester; sites not stated; IRDye 700DX (IR700) attached via NHS ester; sites not stated; DAR 2.5 per antibody
notes: also called 1P9-EKO (conjugate); anti-PD-L1-IR700 conjugate with effector knock-out Fc region
B4: 2M3 (antibody, V domains shown)
VH: EVQLVESGGGFVQTGGSLRLSCAASGFNFRSYDMHWVRQVIGKGLEWVSGIGPGGDTYYPGSVKGRFTISRENAKNSLYLQMNSLRAGDTAVYYCAREQFEGHYFDYWGQGTLVTVSS
VL: B1 VL with T20N, G30S, G41W, F46L, A50T, G56S, L96I, G100Q, K103R, V104L
B5: 3B2 (antibody, V domains shown)
VH: EVQLQESGPSLVKPSQTLSLTCSVTGDSITSGYWNWIRKFPGNKLEYMGYISYTGSTYYNPSLKSRISITRDTSKNQYYLQLDSVTTEDTATYYCARKGGWLLPFAYWGQGTLVTVSA
VL: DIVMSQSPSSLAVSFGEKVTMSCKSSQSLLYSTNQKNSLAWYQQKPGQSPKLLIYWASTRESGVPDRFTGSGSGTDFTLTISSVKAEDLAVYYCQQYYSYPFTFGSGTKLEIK
B6: 3B4 (antibody, V domains shown)
VH: B5 VH with Y47S, I67L, Y78F, D83N, R97S, K98G, G99L, G100L, L103A, P104W
VL: DIVMSQSPSSLAVSVGEKVTMSCKSSQSLLYSSNQKNSLAWYQQKPGQSPKLLIYWASTRESGVPDRFTGSGSGTDFTLTISSVRAEDLAVYYCQQYYGYPFTFGGGTKLEIK
B7: 3B6 (antibody, V domains shown)
VH: EVKLVESGGGLVQPGGSLRLSCGTSGFTFSDFYVEWVRQPPGKRLEWIAASRNKVNDYTTEYSESVKGRFIVSRDTSQNILYLQMNALRAEDSAIYYCARNVPWDGWYFDVWGAGTAVTVSS
VL: DIVMTQSQKFMSTSVGDRVSITCKASQNVRTAVAWFQQKPGQSPKALIYLASTRHTGVPDRFTGSGSGTDFTLTISNVQSEDLADYFCLQHWNYPRTFGGGTKLEIK
B8: 2M2 (antibody, V domains shown)
VH: QVQLVQSGAEVKKPGASVKVSCKASGYTFTNYGISWVRQAPGQGLEWMGWISAYNGHTNYAQKVQGRVTMTTDTSTSTAFMELRSLRSDDSAVYYCARGTSGDYWGQGTLVTVSS
VL: not shown
B9: 2M5 (antibody, V domains shown)
VH: EVQLVESGGGLVKPGGSLRVSCAASGFTLSSYSMNWVRQAPGKGLEWVSSISSSSSYIYYADSVKGRFTISRDNAKNLLYLQMNSLRAEDTAVYYCAREGGAARPSWFDPWGQGTLVTVSS
VL: QAVVTQESALTTSPGETVTLTCRSSTGAVTTSNYANWVQEKPDHLFTGLIGGTNNRAPGVPARFSGSLIGDKAALTITGAQTEDEAIYFCALWYRNHWVFGGGTKLTVL
B10: 1P4-IR700 (antibody, V domains shown)
VH: QVQLVESGGGVVQPGRSLRLSCAASGFTFSNYGMHWVRQAPGKGLEWVSLILYDGSNKYYADSVKGRFTISRDNSKNTLYLQMNSLRAEDTAVYYCARDRVWLDVWGKGTTVTVSS
VL: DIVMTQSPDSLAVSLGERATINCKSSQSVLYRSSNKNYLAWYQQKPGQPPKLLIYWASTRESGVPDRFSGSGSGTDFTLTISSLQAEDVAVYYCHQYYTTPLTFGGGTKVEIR
modifications: IRDye 700DX (IR700) attached via NHS ester; sites not stated; IRDye 700DX (IR700) attached via NHS ester; sites not stated; DAR 2.9 per antibody
notes: also called 1P4-IR700 conjugate; anti-PD-L1-IR700 conjugate
B11: 1P4 with effector knockout (EKO) mutations L234F/L235E/P331S (antibody, V domains shown)
VH: B10 VH
VL: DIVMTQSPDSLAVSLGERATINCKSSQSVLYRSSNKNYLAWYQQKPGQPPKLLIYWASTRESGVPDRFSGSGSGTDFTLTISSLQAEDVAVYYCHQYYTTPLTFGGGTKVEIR
notes: Same variable regions as 1P4; also called 1P4-EKO; 1P4 (L234F/L235E/P331S)
B12: 1P4-EKO-IR700 conjugate (antibody, V domains shown)
VH: B10 VH
VL: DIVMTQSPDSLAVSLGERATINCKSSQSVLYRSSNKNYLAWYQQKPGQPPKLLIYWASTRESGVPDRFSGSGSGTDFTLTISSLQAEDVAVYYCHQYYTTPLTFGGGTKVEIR
modifications: IRDye 700DX (IR700) attached via NHS ester; sites not stated; IRDye 700DX (IR700) attached via NHS ester; sites not stated; DAR 2.7 per antibody
notes: also called 1P4-EKO (conjugate); anti-PD-L1-IR700 conjugate with effector knock-out Fc region
B13: 3B1 (antibody, V domains shown)
VH: QIQLVQSGPELKKPGETVKISCKASGYDFTNYGMNWVKQAPGKGLKWMGYINTYTGEPAYADDFKGRFAFSLETSARTAYLRINNLKNEDTATYFCATRAYYGHYLAYWGQGTLVTVSA
VL: DVLMTQTPLSLPVSLGDQASISCRSSQRIVHSNGNTYLEWYLQKPGQSPKLLIYKVSNRFSGVPDRFSGSGSGTDFTLKISRVEAEDLGVYYCFQGSHVPYTFGGGTKLEIK
B14: 3B5 (antibody, V domains shown)
VH: B13 VH
VL: QIVLTQSPAIMSASPGEKVTITCSASSSVSYMHWFQQKPGTSPKLWIYSTSNLASGVPARFSGSGSGTSYSLTISRMEAEDAATYYCQQRSSYPFTFGSGTKLEIK

Key:
6xHis-tagged cyPD-L1 [1] = biological target: T1, 6xHis-tagged cyPD-L1 (cynomolgus monkey, UniProt Q9NZQ7 19-238 (human entry)); experiment: ELISA, plate-coated 6xHis cyPD-L1, A450
T1 construct: The assay text says only '6xHis-tagged cyPD-L1'; also called cynomolgus PD-L1; not shown: 6xHis tag
Protocol: (§1) Hybridoma supernatants were tested for binding to huPD-L1, cyPD-L1, and muPD-L1 by ELISA. Briefly, 30 μL 6xHis-tagged huPD-L1, cyPD-L1, or muPD-L1 (1 μg/mL in PBS) were immobilized in wells of a 96-well assay plate overnight at 4° C. After washing and blocking steps, 30 μL of antibody supernatant were added to the plate and incubated at room temperature for 1 hr. Bound human antibody was detected using horseradish peroxidase (HRP)-conjugated goat anti-human Fc (Invitrogen Cat. No. 109-035-097; diluted 1:5000) or goat anti-mouse Fc HRP (Invitrogen Cat. No. 115-035-071) as a control. Bound antibody was detected with 1-Step Ultra™ TMB-ELISA Substrate (ThermoFisher Scientific Cat. No. 34029). When the reaction was complete the reaction was stopped, and the plate was read at 450 nm.
(§2) Anti-PD-L1 antibodies, described in Example 1A and manufactured substantially as described in Example 1B, were tested for to huPD-L1 and cyPD-L1 by ELISA substantially as described in Example 1A, using 12 dilutions of antibody ranging from 1 ng/ml to 3 mg/mL.

6xHis-tagged huPD-L1 [2] = biological target: T2, 6xHis-tagged huPD-L1 (human, UniProt Q9NZQ7 19-238); experiment: ELISA, plate-coated 6xHis huPD-L1, A450
T2 construct: also called human PD-L1 (RD Systems 9049-B7); extracellular domain of human PD-L1 fused to a His tag; not shown: 6xHis tag
Protocol: as §1, §2

[3] = biological target: T3, human PD-L1 expressed on cells (human, UniProt Q9NZQ7 19-290); experiment: flow cytometry, PD-L1-expressing CHO cells, MFI (FITC)
T3 construct: whole, on cells; One entry covers all human PD-L1-bearing cells; also called huPD-L1 on CHO cells (CHO-hPD-L1); PD-L1 on A431 cells
Protocol: Wild-type (wt) Chinese hamster ovary (CHO) cells (ATCC) and CHO cells engineered to express huPD-L1 (BPS Bioscience) were seeded at 200,000 cells in 50 μL FACS buffer (PBS containing 1% FBS and 5 mM EDTA) per well of a 96-well plate. Cell viability was assessed by adding 50 μL 2×Zombie Violet (BioLegend). Dead cell controls were also prepared and 2×Zombie violet was added. After incubating 20-30 minutes at room temperature, protected from light, 150 μL FACS buffer were added to each well. The plates were centrifuged, and the supernatant was aspirated. […] The plates were incubated 30 minutes on ice, protected from light. 150 μL FACS buffer were then added to each well and the plate was centrifuged. The supernatant was removed and the cells were washed three times in 200 μL FACS buffer. […] The cells were incubated 30 minutes on ice, protected from light. 150 μL FACS buffer were then added to each well and the plate was centrifuged. Supernatant was removed and the cells were washed twice with 200 μL FACS buffer. The cells were then resuspended in FACS buffer and analyzed by CytoFLEX using the appropriate channels. After gating for whole, single, live cells, the MFI in the APC channel (or FITC channel for human control samples) was normalized to the signal from hybridoma media alone (or isotype control for human control). MFI fold over media alone was determined for each clone supernatant tested.

6xHis-tagged cyPD-L1 [4] = biological target: T1, 6xHis-tagged cyPD-L1; experiment: ELISA, plate-coated 6xHis cyPD-L1, OD 450 nm
Protocol: as §1

[5] = biological target: T4, PD-L1-His (Acro Cat PDL-H5229) (human, UniProt Q9NZQ7 19-238); experiment: SPR (Biacore 4000) as in Example 3, conjugate captured, PD-L1-His analyte, 25° C.
T4 construct: also called human PD-L1 (SPR analyte); not shown: His tag
Protocol: (§3) The binding affinities of the generated antibodies to human PD-L1 were determined by surface plasmon resonance. […] PD-L1-His (Acro Cat PDL-H5229) was tested for binding in a 3-fold titration series up to 100 nM. Data were collected in HBS-P (pH 7.4) at 37° C. and 25° C.
(§4) The binding affinities of the generated anti-PD-L1 conjugates were determined by surface plasmon resonance, as described in Example 3.

[6] = biological target: T4, PD-L1-His (Acro Cat PDL-H5229); experiment: SPR (Biacore 4000) as in Example 3, conjugate captured, PD-L1-His analyte, 37° C.
Protocol: as §3, §4

[7] = biological target: T3, human PD-L1 expressed on cells; experiment: cell-based or functional assay
6xHis-tagged huPD-L1 [8] = biological target: T2, 6xHis-tagged huPD-L1; experiment: ELISA, plate-coated 6xHis huPD-L1, OD 450 nm
Protocol: as §1

[9] = biological target: T3, human PD-L1 expressed on cells; experiment: cell-based or functional assay; remark: listed apart in the source

T1 sequence (Q9NZQ7 other isoform, or with tags, fused parts or gaps): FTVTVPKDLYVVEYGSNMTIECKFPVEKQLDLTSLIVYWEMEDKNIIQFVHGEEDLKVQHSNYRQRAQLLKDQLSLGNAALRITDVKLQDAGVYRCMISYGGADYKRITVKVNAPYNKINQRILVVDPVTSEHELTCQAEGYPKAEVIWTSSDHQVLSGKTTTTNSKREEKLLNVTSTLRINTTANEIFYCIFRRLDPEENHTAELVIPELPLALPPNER
T3 sequence (Q9NZQ7 19-290): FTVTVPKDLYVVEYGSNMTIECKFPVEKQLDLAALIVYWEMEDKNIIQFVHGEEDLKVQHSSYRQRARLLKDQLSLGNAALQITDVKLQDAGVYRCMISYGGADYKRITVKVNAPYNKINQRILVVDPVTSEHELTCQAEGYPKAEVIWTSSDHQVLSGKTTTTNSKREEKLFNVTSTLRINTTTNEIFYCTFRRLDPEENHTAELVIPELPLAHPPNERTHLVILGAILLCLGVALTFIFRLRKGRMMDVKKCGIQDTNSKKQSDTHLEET
T2 sequence (Q9NZQ7 19-238): as the sequence (Q9NZQ7 other isoform, or with tags, fused parts or gaps) above, with T33A, S34A, N62S, Q68R, R82Q, L173F, A185T, I192T, L215H counted along it
T4 sequence (Q9NZQ7 19-238 limits assumed): as the sequence (Q9NZQ7 other isoform, or with tags, fused parts or gaps) above, with T33A, S34A, N62S, Q68R, R82Q, L173F, A185T, I192T, L215H counted along it

Binder	Absolute IC50 (6xHis-tagged cyPD-L1 [1]) [µg/mL]	Absolute IC50 (6xHis-tagged huPD-L1 [2]) [µg/mL]	EC50 [3] [µg/mL]	other results
B1	0.559	0.428		
B2			0.0186	
B3			0.0174	
B4	0.672	0.788		
B5	0.341	0.225		
B6	0.106	0.152		
B7	0.246	0.33		
B8	0.167	0.0838		
B9	0.234	0.788		
B10			0.133	EC50 (6xHis-tagged cyPD-L1 [4]): 0.193 µg/mL; Kd [5]: 16 nM; koff [5]: 0.0056 s⁻¹; kon [5]: 350000 M⁻¹ s⁻¹; Kd [6]: 23 nM; koff [6]: 0.011 s⁻¹; kon [6]: 470000 M⁻¹ s⁻¹; EC50 of luminescence (RLU), PD-1:PD-L1 Blockade Bioassay (PD-L1 aAPC/CHO-K1 cells with PD-1 Effector Jurkat NFAT-luciferase cells) [7]: 0.855 µg/mL; EC50 (6xHis-tagged huPD-L1 [8]): 0.189 µg/mL; EC50 of photoimmunotherapy-induced killing of A431 cells (Cell Tox Green, 128 J/cm^2) [9]: 0.103 µg/mL
B11			0.0455	
B12			0.145	
B13	0.0569	0.0498		
B14	0.325			binding result (6xHis-tagged huPD-L1 [2]): binds
